According to article PMC6706451, “Crystal structure and substrate-induced activation of ADAMTS13” (Nature Communications, 2019):

Key:
[1] = molecular target: VWF96-MP (human, UniProt P04275 1573-1668, L1603N); experiment: ELISA
[2] = molecular target: VWF96-Spacer (human, UniProt P04275 1573-1668, L1664T | V1665N | L1666Q); experiment: ELISA
[3] = molecular target: T1, ADAMTS13 (human, UniProt Q76LX8 75-1427); experiment: ELISA; plate binding: 100 nM VWF96 or variant adsorbed on 96-well plates (50 mM sodium bicarbonate pH 9.6, overnight, 4 °C); 0-600 nM ADAMTS13 in PBS/1% BSA/80 mM EDTA, room temperature, 1.5 h (legend: 1 h); detected with biotinylated anti-ADAMTS13 TSP2-4 polyclonal antibody; one-site fit; apparent KD; conditions: one partner purified
T1 construct: ADAMTS13, recombinant; holds TSP2-4 (detected with an anti-ADAMTS13 TSP2-4 polyclonal antibody); The introduction says the short propeptide is removed before secretion; also called recombinant ADAMTS13
T1 sequence (looked up): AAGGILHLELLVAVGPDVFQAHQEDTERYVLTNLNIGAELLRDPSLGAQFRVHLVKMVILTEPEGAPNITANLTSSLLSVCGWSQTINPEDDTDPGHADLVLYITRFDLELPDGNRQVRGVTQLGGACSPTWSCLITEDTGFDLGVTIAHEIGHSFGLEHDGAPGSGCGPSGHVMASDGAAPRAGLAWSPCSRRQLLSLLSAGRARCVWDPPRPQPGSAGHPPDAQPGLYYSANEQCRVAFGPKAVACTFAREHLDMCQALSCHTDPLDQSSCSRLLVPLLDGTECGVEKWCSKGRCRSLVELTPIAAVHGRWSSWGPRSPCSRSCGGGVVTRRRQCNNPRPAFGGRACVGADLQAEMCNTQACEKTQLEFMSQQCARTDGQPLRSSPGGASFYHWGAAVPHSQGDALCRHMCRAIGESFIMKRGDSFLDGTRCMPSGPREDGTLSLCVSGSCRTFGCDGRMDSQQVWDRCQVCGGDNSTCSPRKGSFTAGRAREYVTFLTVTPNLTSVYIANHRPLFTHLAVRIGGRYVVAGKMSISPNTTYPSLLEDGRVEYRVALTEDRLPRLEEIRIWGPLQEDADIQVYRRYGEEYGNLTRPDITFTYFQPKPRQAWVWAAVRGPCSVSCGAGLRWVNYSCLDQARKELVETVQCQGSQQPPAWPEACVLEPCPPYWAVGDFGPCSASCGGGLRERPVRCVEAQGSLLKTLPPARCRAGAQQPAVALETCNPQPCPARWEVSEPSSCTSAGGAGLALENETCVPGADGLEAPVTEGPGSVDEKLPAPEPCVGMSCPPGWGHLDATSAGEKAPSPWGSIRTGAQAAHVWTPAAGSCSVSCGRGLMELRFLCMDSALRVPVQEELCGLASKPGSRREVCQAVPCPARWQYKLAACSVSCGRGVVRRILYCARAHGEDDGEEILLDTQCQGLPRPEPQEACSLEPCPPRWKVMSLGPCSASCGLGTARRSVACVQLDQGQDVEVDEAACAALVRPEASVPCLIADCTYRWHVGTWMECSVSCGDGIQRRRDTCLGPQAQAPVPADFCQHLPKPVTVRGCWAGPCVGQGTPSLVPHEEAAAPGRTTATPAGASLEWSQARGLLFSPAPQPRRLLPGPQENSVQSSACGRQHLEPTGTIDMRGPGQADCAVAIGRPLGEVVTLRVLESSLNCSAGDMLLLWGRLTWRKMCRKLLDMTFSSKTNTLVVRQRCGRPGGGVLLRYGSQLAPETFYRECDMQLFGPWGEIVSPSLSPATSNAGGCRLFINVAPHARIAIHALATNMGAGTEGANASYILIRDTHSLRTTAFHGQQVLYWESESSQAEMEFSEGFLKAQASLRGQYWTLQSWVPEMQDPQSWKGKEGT

[4] = molecular target: T2, ADAMTS13 MDTCS(E225Q) (human, UniProt Q76LX8 78-682, E225Q, N-linked glycans at Asn142, Asn146, Asn552, Asn579, Asn614, Asn667 and an O-linked glycan on Ser399 (seen in the structure)); experiment: ITC; 27 μM MDTCS(E225Q) in the cell, injections of 279 μM tag-free VWF73; 20 mM HEPES pH 7.5, 150 mM NaCl, 5 mM CaCl2; 25 °C; mean of four experiments; conditions: both partners purified
T2 construct: Drosophila BiP signal cleaved off to give the native N terminus Gly78; Vector pMT-BiP-PURO; also called MDTCS(E225Q) active-site mutant; not shown: 6xHis, C-terminal, kept
T2 sequence (looked up): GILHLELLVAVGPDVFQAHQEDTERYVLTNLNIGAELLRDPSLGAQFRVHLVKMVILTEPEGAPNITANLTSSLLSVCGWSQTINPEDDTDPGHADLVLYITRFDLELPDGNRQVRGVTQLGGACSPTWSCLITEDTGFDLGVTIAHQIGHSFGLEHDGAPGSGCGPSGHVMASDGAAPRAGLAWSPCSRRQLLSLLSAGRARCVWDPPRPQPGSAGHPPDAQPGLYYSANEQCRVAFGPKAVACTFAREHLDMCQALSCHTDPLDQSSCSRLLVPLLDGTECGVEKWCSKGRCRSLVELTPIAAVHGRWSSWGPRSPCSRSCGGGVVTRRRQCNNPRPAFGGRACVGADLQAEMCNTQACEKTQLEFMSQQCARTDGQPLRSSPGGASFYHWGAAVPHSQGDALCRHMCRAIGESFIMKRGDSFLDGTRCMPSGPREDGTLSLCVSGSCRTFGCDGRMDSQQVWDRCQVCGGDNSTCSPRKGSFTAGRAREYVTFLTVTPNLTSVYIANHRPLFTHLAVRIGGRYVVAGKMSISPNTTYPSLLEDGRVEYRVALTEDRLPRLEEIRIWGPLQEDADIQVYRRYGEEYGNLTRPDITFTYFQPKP

B1: ADAMTS13 (enzyme)
chain: AAGGILHLELLVAVGPDVFQAHQEDTERYVLTNLNIGAELLRDPSLGAQFRVHLVKMVILTEPEGAPNITANLTSSLLSVCGWSQTINPEDDTDPGHADLVLYITRFDLELPDGNRQVRGVTQLGGACSPTWSCLITEDTGFDLGVTIAHEIGHSFGLEHDGAPGSGCGPSGHVMASDGAAPRAGLAWSPCSRRQLLSLLSAGRARCVWDPPRPQPGSAGHPPDAQPGLYYSANEQCRVAFGPKAVACTFAREHLDMCQALSCHTDPLDQSSCSRLLVPLLDGTECGVEKWCSKGRCRSLVELTPIAAVHGRWSSWGPRSPCSRSCGGGVVTRRRQCNNPRPAFGGRACVGADLQAEMCNTQACEKTQLEFMSQQCARTDGQPLRSSPGGASFYHWGAAVPHSQGDALCRHMCRAIGESFIMKRGDSFLDGTRCMPSGPREDGTLSLCVSGSCRTFGCDGRMDSQQVWDRCQVCGGDNSTCSPRKGSFTAGRAREYVTFLTVTPNLTSVYIANHRPLFTHLAVRIGGRYVVAGKMSISPNTTYPSLLEDGRVEYRVALTEDRLPRLEEIRIWGPLQEDADIQVYRRYGEEYGNLTRPDITFTYFQPKPRQAWVWAAVRGPCSVSCGAGLRWVNYSCLDQARKELVETVQCQGSQQPPAWPEACVLEPCPPYWAVGDFGPCSASCGGGLRERPVRCVEAQGSLLKTLPPARCRAGAQQPAVALETCNPQPCPARWEVSEPSSCTSAGGAGLALENETCVPGADGLEAPVTEGPGSVDEKLPAPEPCVGMSCPPGWGHLDATSAGEKAPSPWGSIRTGAQAAHVWTPAAGSCSVSCGRGLMELRFLCMDSALRVPVQEELCGLASKPGSRREVCQAVPCPARWQYKLAACSVSCGRGVVRRILYCARAHGEDDGEEILLDTQCQGLPRPEPQEACSLEPCPPRWKVMSLGPCSASCGLGTARRSVACVQLDQGQDVEVDEAACAALVRPEASVPCLIADCTYRWHVGTWMECSVSCGDGIQRRRDTCLGPQAQAPVPADFCQHLPKPVTVRGCWAGPCVGQGTPSLVPHEEAAAPGRTTATPAGASLEWSQARGLLFSPAPQPRRLLPGPQENSVQSSACGRQHLEPTGTIDMRGPGQADCAVAIGRPLGEVVTLRVLESSLNCSAGDMLLLWGRLTWRKMCRKLLDMTFSSKTNTLVVRQRCGRPGGGVLLRYGSQLAPETFYRECDMQLFGPWGEIVSPSLSPATSNAGGCRLFINVAPHARIAIHALATNMGAGTEGANASYILIRDTHSLRTTAFHGQQVLYWESESSQAEMEFSEGFLKAQASLRGQYWTLQSWVPEMQDPQSWKGKEGT
For B1, the Kd [1] was 65 nM and the Kd [2] was 241 nM.

B2: VWF87(ΔSpacer) (domain or fragment)
chain: GNRTNTGLALRYLSDHSFLVSQGDREQAPNLVYMVTGNPASDEIKRLPGDIQVVPIGVGPNANVQELERIGWPNAPILIQDFETLPR
notes: von Willebrand factor, A2 domain fragment: VWF96 (Gly1573-Arg1668) with residues Glu1660-Arg1668 deleted, 87 amino acids; Variant of the VWF96 vector; the C-terminal HSV-6xHis tag follows residue 1659; source: E. coli BL21 (DE3), purified (Ni2+ HiTrap Chelating HP, Capto Q ImpRes); not shown: 6xHis-SUMO, N-terminal, kept; HSV-6xHis, C-terminal, kept
With B2 the Kd [3] was 475 nM.

B3: VWF96 (VWF A2 domain fragment Gly1573-Arg1668 with N-terminal 6xHis-SUMO tag and C-terminal HSV-6xHis tag) (domain or fragment)
chain: GNRTNTGLALRYLSDHSFLVSQGDREQAPNLVYMVTGNPASDEIKRLPGDIQVVPIGVGPNANVQELERIGWPNAPILIQDFETLPREAPDLVLQR
notes: von Willebrand factor, A2 domain fragment, residues Gly1573-Arg1668 (96 amino acids); SUMO tag is a derivative of yeast Smt3 (13 kDa, Invitrogen); Vector pET25b(+); About 32 kDa with tags; also called wild-type VWF96; source: E. coli BL21 (DE3), purified (Ni2+ HiTrap Chelating HP, Capto Q ImpRes); not shown: 6xHis-SUMO, N-terminal, kept; HSV-6xHis, C-terminal, kept
Binder B3 has a Kd [3] of 40 nM.

B4: VWF96-Cys (domain or fragment, human, UniProt P04275 1573-1668, looked up)
chain: GNRTNTGLALRYLSDHSFLVSQGDREQAPNLVYMVTGNPASDEIKRLPGDIQVVPIGVGPNANVQELERQGYPNSPQQQQDFETLPREAPDLVLQR
notes: Variant of the VWF96 vector; source: E. coli BL21 (DE3), purified (Ni2+ HiTrap Chelating HP, Capto Q ImpRes); not shown: 6xHis-SUMO, N-terminal, kept; HSV-6xHis, C-terminal, kept
B4 was tested, and the Kd [3] was 632 nM.

B5: VWF96-Dis (domain or fragment, human, UniProt P04275 1573-1668, looked up)
chain: GNRTNTGLALRYLSDHSFLVSQGDREQAPNLVYMVTGNPASAEQEELPGTIQVVPIGVGPNANVQELERIGWPNAPILIQDFETLPREAPDLVLQR
notes: as for B4
Work on B5 yielded a Kd [3] of 615 nM.

B6: VWF73 (tag-free VWF A2 domain fragment Asp1596-Arg1668) (domain or fragment)
chain: DREQAPNLVYMVTGNPASDEIKRLPGDIQVVPIGVGPNANVQELERIGWPNAPILIQDFETLPREAPDLVLQR
notes: von Willebrand factor, human, A2 domain fragment, residues Asp1596-Arg1668 (73 amino acids); Vector pET-SUMO; also called tag-free VWF73; source: E. coli One Shot BL21 Star (DE3), purified as VWF96; His-SUMO tag removed with SUMO protease-1, passed over Ni2+ column; not shown: 6xHis-SUMO, N-terminal, cleaved
In the case of B6, the Kd [4] is reported as 450 nM.
